The values below come from the supplement of paper PMC10567573.

± gives the standard deviation.

A short description of this data set: protein stability index of a GFP-peptide fusion (GPS, HEK-293T) (PSI 1-6); higher = more stable. Particulars: c terminus: a fixed tail appended.
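Also: 24-mer peptide tiles fused after GFP, lentivirally expressed, FACS-sorted into six equal bins by GFP/DsRed ratio, decoded by Illumina sequencing, PSI is the read-weighted mean bin number.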

As to ELSSVHPPHYFFTYRIRIEMSKDA [FBXO3], the protein stability index by setting is: (treatment: DMSO) 2.15 ± 0.21; (treatment: MLN4924 1 uM, 8 h) 2.18 ± 0.42.

As to LTHLVKLDLSKNKLQQLPADFGRL [LRRC59], the protein stability index was 2.65 ± 0.19 (treatment: DMSO) and 2.7 ± 0.17 (treatment: MLN4924 1 uM, 8 h).

For the sequence FDAALVSFINFFTSVLATLVVFAV [SLC6A17], the protein stability index came to 3.44 ± 0.4 (treatment: DMSO) and 3.44 ± 0.97 (treatment: MLN4924 1 uM, 8 h).

As for MEPGDIIGVAGNHWDGYSKGVNRK [FUT8], the protein stability index reads like this: (treatment: DMSO) 4.4 ± 0.22; (treatment: MLN4924 1 uM, 8 h) 4.6 ± 0.35.

In the case of FLLLYLFTLGTNAIIISTIVLDRA [OR10K2], the protein stability index reads like this: (treatment: DMSO) 3.39 ± 0.28; (treatment: MLN4924 1 uM, 8 h) 3.23 ± 0.53.

For ENIDSLYNVNLSKGRAALSATVPR [SCNN1D], the protein stability index by setting is: (treatment: DMSO) 3.94 ± 0.39; (treatment: MLN4924 1 uM, 8 h) 4.04 ± 0.24.

On to VGTAAVNMCLVATGGADAYYEMGI [IMPA1], for which the protein stability index is, setting by setting: (treatment: DMSO) 2.71 ± 0.045; (treatment: MLN4924 1 uM, 8 h) 2.73 ± 1.1.

RKPCKLMLQVVKILVVTVQLILFG [MCOLN1]: the protein stability index stood at 2.44 ± 0.33 (treatment: DMSO) and 2.47 ± 0.32 (treatment: MLN4924 1 uM, 8 h).

With QNPVLSKLLMADQDSPLDLTVRKS [LCOR], the protein stability index was 4.14 ± 0.27 (treatment: DMSO) and 4.25 ± 0.21 (treatment: MLN4924 1 uM, 8 h).

For the sequence LNECVGTAYWALAGSIGGLFFAVG [SLC22A15], the protein stability index runs as follows: (treatment: DMSO) 3.19 ± 1.4; (treatment: MLN4924 1 uM, 8 h) 3.72 ± 0.21.

Regarding SCFLINTADRIIRVYDGREILTCG [RBBP5], the protein stability index is, setting by setting: (treatment: DMSO) 1.91 ± 0.098; (treatment: MLN4924 1 uM, 8 h) 1.91 ± 0.27.

Turning to CLTTGDVIAINYNEKIYELRVMET [UFD1], the protein stability index worked out at 2.25 ± 0.35 (treatment: DMSO) and 2.04 ± 0.27 (treatment: MLN4924 1 uM, 8 h).

Consider DIEDVFYKYGAIRDIDLKNRRGGP [SRSF1], for which the protein stability index reads like this: (treatment: DMSO) 3.32 ± 0.48; (treatment: MLN4924 1 uM, 8 h) 3.39 ± 0.17.

As to PPQPMVPLAVENQAGGEGAGGELG [PBXIP1], the protein stability index runs as follows: (treatment: DMSO) 5.52 ± 0.11; (treatment: MLN4924 1 uM, 8 h) 5.51 ± 0.12.

Take VVLSDGPALHPAHAPQISYTGPSS [NCK2]: the protein stability index worked out at 3.13 ± 0.37 (treatment: DMSO) and 3.38 ± 0.17 (treatment: MLN4924 1 uM, 8 h).

With LVLEQFLTILPTEIETWVREHCPE [ZNF449], the protein stability index (treatment: DMSO) was 2.2 ± 0.47 and the protein stability index (treatment: MLN4924 1 uM, 8 h) is 2.35 ± 0.47.

In the case of KTKYILLMDIVPADDHRYKFADNK [TBX5], the protein stability index is, setting by setting: (treatment: DMSO) 2.08 ± 0.22; (treatment: MLN4924 1 uM, 8 h) 2.3 ± 0.42.

On to DGKSLVSVTKEGLELPEDEEEKKK [HSP90AB1], for which the protein stability index by setting is: (treatment: DMSO) 5.61 ± 0.2; (treatment: MLN4924 1 uM, 8 h) 5.44 ± 0.3.

In turn, GFSSGRHRWQVDLQLGDGGGCTVG [TRIM15] registered a protein stability index (treatment: DMSO) of 2.93 ± 0.29 and a protein stability index (treatment: MLN4924 1 uM, 8 h) of 3.07 ± 0.27.

ISQQDPESDSQGQGNGLFYSSGPQ [ZC2HC1C]: the protein stability index came to 4.83 ± 0.48 (treatment: DMSO) and 5.08 ± 0.19 (treatment: MLN4924 1 uM, 8 h).

As to PEIAQNFSAPDPPRPRPVSLSLRL [SMTNL2], the protein stability index (treatment: DMSO) was 2.91 ± 0.27 and the protein stability index (treatment: MLN4924 1 uM, 8 h) amounted to 3.04 ± 0.22.
